The conditions of series [1]: endogenous hormone; cited from earlier work.
Series [2] deals with T1, human GIP receptor (human, UniProt P48546 22-466).
T1 sequence (looked up): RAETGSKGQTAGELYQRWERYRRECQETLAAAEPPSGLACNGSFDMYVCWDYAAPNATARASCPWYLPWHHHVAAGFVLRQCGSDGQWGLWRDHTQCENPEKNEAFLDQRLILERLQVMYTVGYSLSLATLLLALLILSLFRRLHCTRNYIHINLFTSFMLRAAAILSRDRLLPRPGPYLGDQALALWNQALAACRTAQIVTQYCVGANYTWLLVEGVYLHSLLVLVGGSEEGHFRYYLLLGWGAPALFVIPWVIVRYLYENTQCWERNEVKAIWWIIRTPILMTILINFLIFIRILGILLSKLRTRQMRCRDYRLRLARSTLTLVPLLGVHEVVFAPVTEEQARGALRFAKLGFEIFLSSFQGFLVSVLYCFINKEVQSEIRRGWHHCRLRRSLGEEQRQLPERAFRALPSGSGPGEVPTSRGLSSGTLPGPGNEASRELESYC
Kind of series: cell-based or functional assay.

Series [3] deals with T2, human amylin-3(a) receptor (human, UniProt P30988 25-474; O60896 24-148).
T2 sequence (looked up) 1: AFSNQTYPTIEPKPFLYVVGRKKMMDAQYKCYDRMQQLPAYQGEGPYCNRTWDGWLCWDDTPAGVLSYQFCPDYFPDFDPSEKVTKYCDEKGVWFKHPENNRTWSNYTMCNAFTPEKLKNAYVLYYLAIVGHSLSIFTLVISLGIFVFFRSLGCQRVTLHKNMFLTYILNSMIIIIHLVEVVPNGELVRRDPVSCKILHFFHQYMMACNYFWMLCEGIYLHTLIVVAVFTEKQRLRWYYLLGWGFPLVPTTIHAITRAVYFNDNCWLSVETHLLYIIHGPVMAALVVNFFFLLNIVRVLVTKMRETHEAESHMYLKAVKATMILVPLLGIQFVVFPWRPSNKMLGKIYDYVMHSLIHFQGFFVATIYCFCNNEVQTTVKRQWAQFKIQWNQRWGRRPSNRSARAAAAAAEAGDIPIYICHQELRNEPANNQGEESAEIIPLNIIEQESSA
T2 sequence (looked up) 2: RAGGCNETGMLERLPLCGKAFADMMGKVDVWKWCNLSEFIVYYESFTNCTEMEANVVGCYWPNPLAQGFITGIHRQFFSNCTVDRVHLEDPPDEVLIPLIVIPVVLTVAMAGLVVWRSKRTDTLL
Kind of series: cell-based or functional assay.

Series [4] has as its target T3, human GLP-1 receptor (human, UniProt P43220 24-463). Kind of series: cell-based or functional assay.
Series [5] concerns the target T1, human GIP receptor. Kind of series: cell-based or functional assay. This is another data set of the same source.
In series [6] the target is T2, human amylin-3(a) receptor. Kind of series: cell-based or functional assay. This is another data set of the same source.
Series [7] deals with T3, human GLP-1 receptor. Kind of series: cell-based or functional assay. The source holds these as a separate data set.

Numbered stars: 1 amine (or outer) side, 2 acyl side, 3 side chain; on linkers, the order of the positions; unused ones are H or OH. Square brackets hold non-standard residues; d marks the D form. Side chains are listed from the residue outwards. * marks the point of attachment. C20 diacid = O=C(O)CCCCCCCCCCCCCCCCCCC(=O)*; γGlu = O=C(O)[C@H](CCC(=O)[*:2])N[*:1]; Chem. 27 = not defined here; AEEA = NCCOCCOCC(=O)O; Aib = CC(C)(N)C(=O)O

Take “Amylin (KCNTATCATQRLANFLVHSSNNFGAILSSTNVGSNTY; Islet amyloid polypeptide; UniProt P10997 34-70, looked up) ["a 37-amino acid long polypeptide hormone produced in pancreatic beta (β)-cell from where it is co-secreted with insulin"]”: the half-life (as a rule, the time in which the quantity being followed falls by half) in series [1] was 15 to 20 min.

B1: Compound 183 (peptide)
peptide: Y[Aib]EGTFTSDYSK(Chem. 27)LLEEIAAREFIEWLLAGGPSSGAGASELSTAQLGRLSAELHQLATLPRTETGSGSP-NH2
modifications: reading uncertain
Consider B1, for which the “hGIPR Potency, no HSA, EC50 [pM]” value with human GIP receptor [2] stood at 2 pM. The “hAMYR3 Potency, no HSA, EC50 [pM]” value in series [3] came to 6.2 pM. Further, in the series with human GLP-1 receptor [4], the “hGLP-1R Potency, 1% HSA, EC50 [pM]” value was found to be 744 pM. For the same molecule, the “hGIPR Potency, 1% HSA, EC50 [pM]” value with human GIP receptor [5] worked out at 71.4 pM. For the same molecule, the “hAMYR3 Potency, 1% HSA, EC50 [pM]” value in series [6] was 108 pM.

B2: Compound 189 (peptide)
peptide: Y[Aib]EGTFTSDYSILLEEIAAREFIEWLLAGGPSSGAGEAPGEAPGASHLSTAQTQRLSAELHK(Chem. 27)LATLPRTETGSGSP-NH2
modifications: reading uncertain
On to B2, for which, in the series with human GLP-1 receptor [7], the “hGLP-1R Potency, no HSA, EC50 [pM]” value was 26.9 pM. Also, the “hGIPR Potency, no HSA, EC50 [pM]” value with human GIP receptor [2] amounted to 3.18 pM. Moreover, the “hAMYR3 Potency, no HSA, EC50 [pM]” value in series [3] is 12.7 pM. Also, in the series with human GLP-1 receptor [4], the “hGLP-1R Potency, 1% HSA, EC50 [pM]” value was 81.9 pM. Moreover, the “hGIPR Potency, 1% HSA, EC50 [pM]” value with human GIP receptor [5] amounted to 9.18 pM. Also, the “hAMYR3 Potency, 1% HSA, EC50 [pM]” value in series [6] is 1210 pM.

B3: Compound 179 (peptide)
peptide: Y[Aib]EGTFTSDYSILLEEIAAREFIEWLLAGGPSSGAGASHLSTAQTQRLSAELHK(Chem. 27)LATEPRTETGSGSP-NH2
modifications: reading uncertain
Take B3: the “hGLP-1R Potency, no HSA, EC50 [pM]” value with human GLP-1 receptor [7] turned out to be 23.3 pM. For the same molecule, in the series with human GIP receptor [2], the “hGIPR Potency, no HSA, EC50 [pM]” value stood at 4.36 pM. Moreover, the “hAMYR3 Potency, no HSA, EC50 [pM]” value in series [3] was determined as 10 pM. For the same molecule, in the series with human GLP-1 receptor [4], the “hGLP-1R Potency, 1% HSA, EC50 [pM]” value came to 170 pM. In the series with human GIP receptor [5], the “hGIPR Potency, 1% HSA, EC50 [pM]” value turned out to be 25.5 pM. Moreover, in series [6], the “hAMYR3 Potency, 1% HSA, EC50 [pM]” value was found to be 1350 pM.

B4: Compound 115 (peptide)
peptide: Y[Aib]EGTFTSDYSILLEEQAAREFIEWLLAGGPSSGAGQAPGQAPGASHLSTAQTQRLSAELHK([AEEA-AEEA-γGlu-C20 diacid])LATLPRTETGSGSP-NH2
Consider B4, for which the “hGLP-1R Potency, no HSA, EC50 [pM]” value with human GLP-1 receptor [7] came out at 19.4 pM. In addition, in the series with human GIP receptor [2], the “hGIPR Potency, no HSA, EC50 [pM]” value is 10.3 pM. Also, in series [3], the “hAMYR3 Potency, no HSA, EC50 [pM]” value came out at 7.13 pM. In addition, the “hGLP-1R Potency, 1% HSA, EC50 [pM]” value with human GLP-1 receptor [4] came to 92.9 pM. Further, the “hGIPR Potency, 1% HSA, EC50 [pM]” value with human GIP receptor [5] came out at 38.9 pM. In series [6], the “hAMYR3 Potency, 1% HSA, EC50 [pM]” value came out at 551 pM.

B5: Compound 210 (peptide)
peptide: Y[Aib]EGTFTSDYSILLEEQAAREFIEWLLAGGPSSGAGQAPGQAPGASHLSTAQTQRLSAELHKLATLPRTETGSGSP-NH2
modifications: also: further groups not given here
In the case of B5, in the series with human GLP-1 receptor [7], the “hGLP-1R Potency, no HSA, EC50 [pM]” value was 16.4 pM. Besides, in the series with human GIP receptor [2], the “hGIPR Potency, no HSA, EC50 [pM]” value turned out to be 9.57 pM. The “hAMYR3 Potency, no HSA, EC50 [pM]” value in series [3] turned out to be 7.28 pM.

B6: Compound 176 (peptide)
peptide: Y[Aib]EGTFTSDYSILLEEIAAREFIEWLLAGGPSSGAGASELSTAQTQRLSAELHK(Chem. 27)LATLPRTETGSGSP-NH2
modifications: reading uncertain
In the case of B6, the “hGLP-1R Potency, no HSA, EC50 [pM]” value in the series with human GLP-1 receptor [7] is 29.9 pM. For the same molecule, the “hGIPR Potency, no HSA, EC50 [pM]” value in the series with human GIP receptor [2] stood at 3.66 pM. Moreover, in series [3], the “hAMYR3 Potency, no HSA, EC50 [pM]” value worked out at 11.2 pM. The “hGLP-1R Potency, 1% HSA, EC50 [pM]” value in the series with human GLP-1 receptor [4] was 178 pM. For the same molecule, the “hGIPR Potency, 1% HSA, EC50 [pM]” value in the series with human GIP receptor [5] turned out to be 23.8 pM. Moreover, the “hAMYR3 Potency, 1% HSA, EC50 [pM]” value in series [6] amounted to 798 pM.

B7: Compound 181 (peptide)
peptide: Y[Aib]EGTFTSDYSILLEEIAAREFIEWLLAGGPSSEAGASQLSTAQTQRLSAELHK(Chem. 27)LATLPRTETGSGSP-NH2
modifications: reading uncertain
For the molecule B7, in the series with human GLP-1 receptor [7], the “hGLP-1R Potency, no HSA, EC50 [pM]” value is 28.8 pM. For the same molecule, the “hGIPR Potency, no HSA, EC50 [pM]” value in the series with human GIP receptor [2] is 3.25 pM. For the same molecule, the “hAMYR3 Potency, no HSA, EC50 [pM]” value in series [3] was found to be 8.46 pM. Further, the “hGLP-1R Potency, 1% HSA, EC50 [pM]” value in the series with human GLP-1 receptor [4] turned out to be 134 pM. In addition, the “hGIPR Potency, 1% HSA, EC50 [pM]” value with human GIP receptor [5] amounted to 20.1 pM. The “hAMYR3 Potency, 1% HSA, EC50 [pM]” value in series [6] is 1300 pM.
